Target: PS372424 (CXCR3 agonist)

- Kd: 40 nM
B1: CXCR3-A expressed from pEGFPN2 in HEK-293 cells (HEK-CXCR3-A) (receptor)
chain: MVLEVSDHQVLNDAEVAALLENFSSSYDYGENESDSCCTSPPCPQDFSLNFDRAFLPALYSLLFLLGLLGNGAVAAVLLSRRTALSSTDTFLLHLAVADTLLVLTLPLWAVDAAVQWVFGSGLCKVAGALFNINFYAGALLLACISFDRYLNIVHATQLYRRGPPARVTLTCLAVWGLCLLFALPDFIFLSAHHDERLNATHCQYNFPQVGRTALRVLQLVAGFLLPLLVMAYCYAHILAVLLVSRGQRRLRAMRLVVVVVVAFALCWTPYHLVVLVDILMDLGALARNCGRESRVDVAKSVTSGLGYMHCCLNPLLYAFVGVKFRERMWMLLLRLGCPNQRGLQRQPSSSRRDSSWSETSEASYSGL
